According to PMC517709:

What follows are substances tested on a1;alpha2 (Saccharomyces cerevisiae;Saccharomyces cerevisiae) (assay: EMSA). Conditions: 1.4 uM a1 constant, 5-fold dilutions of alpha2 from 82 nM, protein dilution buffer 50 mM Tris pH 7.6, 1 mM EDTA, 500 mM NaCl, 10 mM 2-mercaptoethanol ….
In the case of PRM9 ORF site, the binding signal (fold decrease in affinity vs HO(10)) is reported as 10. Substance YKL162C ORF site has a binding signal (fold decrease in affinity vs HO(10)) of 10. With PRM8 ORF site the binding signal (fold decrease in affinity vs HO(10)) was 5. Work on CDC25 ORF site yielded a binding signal (fold decrease in affinity vs HO(10)) of 5. Substance URB1 ORF site has a binding signal (fold decrease in affinity vs HO(10)) of 25.
